According to publication PMC8770708:
“And” between values parts separate entries of the source, which are not always exact repeats. Equal values may be shown once.

Columns and labels:
[1] = biological target: TraB with a C-terminal double twin-Strep tag (TraB_(Strep4)), VirB10-like subunit of the pED208-encoded T4SS (IncFV plasmid pED208 (carried in E. coli)); experiment: cryo-EM structure; OMCC purified from E. coli MC4100(pED208-traB_(Strep4)) (WT) by StrepTrap and Superdex 200 in 50 mM Tris-HCl pH 8, 200 mM NaCl, 1 mM DTT, 1 mM EDTA, 0.06% DM-NPG, 0.1% digitonin; C1, C13 and C17 reconstructions
[2] = biological target: TraB with a C-terminal double twin-Strep tag (TraB_(Strep4)), VirB10-like subunit of the pED208-encoded T4SS (IncFV plasmid pED208 (carried in E. coli)); experiment: cryo-EM structure; OMCC purified in the same way from E. coli BL21(DE3, pKBV) producing only TraV, TraK and TraB_(Strep4); C13 reconstruction of the ORC, C17 and C16 reconstructions of the CC
[3] = biological target: TraV, VirB7-like lipoprotein subunit of the pED208-encoded T4SS (IncFV plasmid pED208 (carried in E. coli)); experiment: cryo-EM structure; OMCC purified from E. coli MC4100(pED208-traB_(Strep4)) (WT) by StrepTrap and Superdex 200 in 50 mM Tris-HCl pH 8, 200 mM NaCl, 1 mM DTT, 1 mM EDTA, 0.06% DM-NPG, 0.1% digitonin; C1, C13 and C17 reconstructions
[4] = biological target: TraK, VirB9-like subunit of the pED208-encoded T4SS (IncFV plasmid pED208 (carried in E. coli)); experiment: as above

With “TraB with a C-terminal double twin-Strep tag (TraB_(Strep4)), VirB10-like subunit of the pED208-encoded T4SS (natural protein)” the stoichiometry N [1] was 17 copies and the stoichiometry N [2] was 16 and 17.
Work on “TraV, VirB7-like lipoprotein subunit of the pED208-encoded T4SS (natural protein)” yielded a stoichiometry N [3] of 26 copies.
“TraK, VirB9-like subunit of the pED208-encoded T4SS (natural protein)” showed a stoichiometry N [4] of 26 copies.
